According to patent US20230242677A1:

Molecular target: Protein A (Staphylococcus aureus) (UniProt P38507)
Test: Protein A interaction assay (POROS A column HPLC), acidic elution

- retention time: 31.3 min
Substance: hu IgG (positive control) (antibody)
